Target: T1, human oxMIF (oxidized macrophage migration inhibitory factor) (human, UniProt P14174 2-115, oxidized isoform: made by mild oxidation (cystine, GSSG) or by 0.2% Proclin300 or protein crosslinkers (e.g. BMOE); the modified residues are not stated)
T1 construct: mature; a conformational/redox isoform; also called oxidized MIF; recombinant human oxMIF
Experiment: sandwich ELISA, plate coated with RAM0, human EDTA plasma; calibrated with recombinant human MIF in 0.2% ProClin300

T1 sequence (P14174 2-115): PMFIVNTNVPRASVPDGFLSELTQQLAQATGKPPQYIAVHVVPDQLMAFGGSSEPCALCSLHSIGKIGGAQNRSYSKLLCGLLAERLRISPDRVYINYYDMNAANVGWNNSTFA

binding result: binds
B1: human anti-MIF monoclonal antibody RAM0 (antibody, human IgG1, kappa, V domains shown)
VH: EVQLLESGGGLVQPGGSLRLSCAASGFTFSWYAMDWVRQAPGKGLEWVSGIYPSGGRTKYADSVKGRFTISRDNSKNTLYLQMNSLRAEDTAVYYCARVNVIAVAGTGYYYYGMDVWGQGTTVTVSS
VL: DIQMTQSPGTLSLSPGERATLSCRASQGVSSSSLAWYQQKPGQAPRLLIYGTSSRATGIPDRFSGSASGTDFTLTISRLQPEDFAVYYCQQYGRSLTFGGGTKVEIKR
notes: Deposits DSM 25864 and DSM 25863

— patent US20140248638A1 (BAXALTA, published 2014)
